Laboratory results reported in patent publication US20230340089A1 (CITY OF HOPE, published 2023).

Columns and labels:
[1] = molecular target: T1, Structural Maintenance of Chromosome-1A (SMC1A) (human, UniProt Q14683 1-1233); assay: LI-COR based cell surface assay on tumor cells
T1 construct: whole, on cells; Endogenous antigen; It is on live or fixed cells in flow cytometry, LI-COR cell surface assay, ICC and immunogold EM, and in cell lysates in Western blot and immunoprecipitation; No recombinant SMC1A was used; also called SMC1A antigen; surface SMC1
T1 sequence (looked up): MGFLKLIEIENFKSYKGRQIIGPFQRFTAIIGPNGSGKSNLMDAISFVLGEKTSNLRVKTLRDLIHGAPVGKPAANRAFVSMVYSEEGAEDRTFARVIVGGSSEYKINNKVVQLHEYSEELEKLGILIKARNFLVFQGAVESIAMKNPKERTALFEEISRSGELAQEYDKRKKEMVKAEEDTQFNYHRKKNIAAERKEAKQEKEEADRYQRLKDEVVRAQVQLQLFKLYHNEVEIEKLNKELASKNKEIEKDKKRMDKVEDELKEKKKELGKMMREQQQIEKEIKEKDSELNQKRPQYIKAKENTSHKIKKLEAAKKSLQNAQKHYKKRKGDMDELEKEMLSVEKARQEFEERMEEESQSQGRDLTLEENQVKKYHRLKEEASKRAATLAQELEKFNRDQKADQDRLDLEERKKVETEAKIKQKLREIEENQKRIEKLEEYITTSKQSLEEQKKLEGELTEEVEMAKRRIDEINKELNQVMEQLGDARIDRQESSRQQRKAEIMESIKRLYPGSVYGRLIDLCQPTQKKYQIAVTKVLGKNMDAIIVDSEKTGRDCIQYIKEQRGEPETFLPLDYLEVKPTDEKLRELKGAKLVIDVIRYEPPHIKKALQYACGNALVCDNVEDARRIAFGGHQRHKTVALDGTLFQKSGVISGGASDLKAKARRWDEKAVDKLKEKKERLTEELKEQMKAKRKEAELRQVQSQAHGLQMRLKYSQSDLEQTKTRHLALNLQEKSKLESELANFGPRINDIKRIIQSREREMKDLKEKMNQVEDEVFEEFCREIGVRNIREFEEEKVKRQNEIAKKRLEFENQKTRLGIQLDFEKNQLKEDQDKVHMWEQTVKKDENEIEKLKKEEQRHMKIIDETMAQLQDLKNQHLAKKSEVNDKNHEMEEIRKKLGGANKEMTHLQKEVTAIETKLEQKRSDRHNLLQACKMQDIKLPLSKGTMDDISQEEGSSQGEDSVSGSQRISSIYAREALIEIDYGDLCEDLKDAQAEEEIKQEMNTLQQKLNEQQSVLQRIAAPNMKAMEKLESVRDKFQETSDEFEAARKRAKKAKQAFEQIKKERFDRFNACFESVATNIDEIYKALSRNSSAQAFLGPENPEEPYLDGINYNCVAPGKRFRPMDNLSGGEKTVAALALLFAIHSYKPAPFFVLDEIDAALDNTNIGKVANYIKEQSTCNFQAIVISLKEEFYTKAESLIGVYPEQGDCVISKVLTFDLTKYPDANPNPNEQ

[2] = molecular target: T1, Structural Maintenance of Chromosome-1A …; assay: immunoprecipitation, then Western blot with the Bethyl anti-human SMC1A polyclonal antibody
[3] = molecular target: T1, Structural Maintenance of Chromosome-1A …; assay: Western blot of HCT116, HT29 and MDA-MB-231 lysates, 1 ug/ml
Protocol: For each Westem blot, the cell lysates used as samples were from HCT116 cells (1), HT29 cells (2) and MDA-MB-231 cells (3). […] The secondary antibody used was an anti-human-HRP (dilution 1:3000) and incubated for 1 hour at room temperature with the overnight incubations.

B1: SMC1A1 (antibody, V domains shown)
VH: VTLKESGPGILQPSQTLSLTCSFSGFSLSTSGMGVGWIRQPSGKGLEWLAHIWWDDDQYSNTALRSGLTISKDTSKNQVFLKIASVDTSDTATYYCARVTTDAVDYWGQGTSVTVSS
VL: QIVLTQSPAIMSISPGERVTMTCSASSGLTYMYWYQQKPGSSPRLLIYDTSNLASGVPVRFSGSGSGTSYSLTISRMEAEDAATYYCQQWKSFPPTFGGGTKLEIKR
notes: also called SMC1A-ALPHA1
B1: binds [1].

B2: chimeric SMC1A1 mAb (antibody, V domains shown)
VH: B1 VH
VL: B1 VL
notes: also called SMC1A-ALPHA1
B2: binds [2].

B3: meditope-enabled SMC1A4 (antibody, human IgG1, kappa, V domains shown)
VH: EVQLVESGGGLVQPGGSLRLSCAASGFNIKDPYMHWVRQSPGKGLEWIGWITPANGNTKYADSVKGRATISADTSKNTAYLQMNSLRAEDTAIYFCARSGDAYYWAWFAYWGQGTLVTVSS
VL: DVQMTQSPILLSASVGDRVTITCRSSQSIVHSNGNTYLEWYQQRTNGSPRLLIYKVSNRFSGVPSRFSGSGSGTDFTLTISSLQPEDIADYYCFQGPLYTFGAGTKVEIKR
notes: It was detected with anti-human secondary antibodies; also called SMC1A4-me; SMC1A4-ME
B3: binds [3].

B4: SMC1-Beta (antibody, V domains shown)
VH: EVKLQESGPELVKSGASVKIPCKASGYTFTDFNIEWVKQNRGKSLEWIGDINPSNGETIYNKKFKGKATLTVDKSSTTAFMELRSLTSEDTAVYYCARDHYYGYDYDAMDYWGQGTSVTVSS
VL: QIVLTQSPAIMSASPGEKVTMTCSASSSIGYMHWYQQKPGTSPKRWIYDRSKLASGVPARFSGSGSGTSFSLTISSMEAEDAATYYCHQRSRYPYTFGGGTKLEIKR
B4: binds [1].

B5: SMC1A4-chimeric antibody (antibody, V domains shown)
VH: VQLQQSGAELVKPGASVKLSCTASGFNIKDPYMHWVKQRPEQGLEWIGWITPANGNTKYDPKFQAKATITADTYSNTAYLQFSSLTSEDTAVYFCARSGDAYYWAWFAYWGQGTLVTVSA
VL: DVLMTQTPLSLTVSLGDQASISCRSSQSIVHSNGNTYLEWYLQKPGQSPKLLIYKVSNRFSGVSDRFSGSGSGTDFTLKISRVEAEDLGVYYCFQGPLYTFGGGTKLEIKR
notes: Chimeric IgG detected with anti-human secondary antibodies; also called chimeric SMC1A4; SMC1A4 chimeric monoclonal antibody
B5: binds [2].
